Paper PMC7693276

Target: central subunit ND3 of Y. lipolytica complex I (Y. lipolytica) (UniProt Q9B6C7)
Sequence of UniProt Q9B6C7 (Q9B6C7 whole entry, one chain of several): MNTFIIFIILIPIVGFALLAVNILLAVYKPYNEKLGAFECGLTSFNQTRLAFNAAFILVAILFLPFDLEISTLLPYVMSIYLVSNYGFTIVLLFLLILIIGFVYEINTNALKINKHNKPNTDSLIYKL

Substance	complex I activity (Q reductase activity), residual rate of the mutant
accessory subunit LYRM6 (NDUFA6) mutant F89A of Y. lipolytica complex I (natural protein)	< 25%
accessory subunit LYRM6 (NDUFA6) mutant L42A of Y. lipolytica complex I (natural protein)	< 25%
accessory subunit LYRM6 (NDUFA6) mutant Y43A of Y. lipolytica complex I (natural protein)	< 25%
